Target: β1AR-84 (minimally thermostabilised turkey β1 adrenergic receptor construct) (turkey), P07700
Test: cell-based or functional assay

Sequence of β1AR-84 (minimally thermostabilised turkey β1 adrenergic receptor construct) (turkey), P07700 (P07700 other isoform, or with tags, fused parts or gaps): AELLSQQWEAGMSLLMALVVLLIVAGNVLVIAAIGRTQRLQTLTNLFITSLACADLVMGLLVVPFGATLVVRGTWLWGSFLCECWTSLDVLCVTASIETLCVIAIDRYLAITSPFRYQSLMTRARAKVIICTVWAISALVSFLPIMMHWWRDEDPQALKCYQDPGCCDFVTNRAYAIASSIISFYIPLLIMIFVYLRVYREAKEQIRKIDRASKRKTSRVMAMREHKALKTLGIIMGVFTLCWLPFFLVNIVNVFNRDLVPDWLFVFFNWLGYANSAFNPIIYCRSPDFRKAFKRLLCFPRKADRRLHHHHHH

B1: Mini Gs393, P04896 26-394 (protein)
chain: GIEKQLQKDKQVYRATHRLLLLGADNSGKSTIVKQMRILHGGSGGSGGTSGIFETKFQVDKVNFHMFDVGGQRDERRKWIQCFNDVTAIIFVVDSSDYNRLQEALNDFKSIWNNRWLRTISVILFLNKQDLLAEKVLAGKSKIEDYFPEFARYTTPEDATPEPGEDPRVTRAKYFIRDEFLRISTASGDGRHYCYPHFTCAVDTENARRIFNDCRDIIQRMHLRQYELL
isoprenaline Ki of DDM-solubilised β1AR-84 (alone […] µM): 0.0047 µM
isoprenaline Ki of membrane-embedded β1AR-84 (alone […] µM): 0.0036 µM
isoprenaline Ki of β1AR-84 with 0.25 mM GTPγS (alone 3.0 µM): 5.2 nM

From patent US20190032033A1
